In patent US20080194019:
Substitutions are numbered along the chain they refer to. Numbers in names are those of the source.

T1: STRAD (human, from pCDNA4 HisMax), Q7RTN6
T1 chain: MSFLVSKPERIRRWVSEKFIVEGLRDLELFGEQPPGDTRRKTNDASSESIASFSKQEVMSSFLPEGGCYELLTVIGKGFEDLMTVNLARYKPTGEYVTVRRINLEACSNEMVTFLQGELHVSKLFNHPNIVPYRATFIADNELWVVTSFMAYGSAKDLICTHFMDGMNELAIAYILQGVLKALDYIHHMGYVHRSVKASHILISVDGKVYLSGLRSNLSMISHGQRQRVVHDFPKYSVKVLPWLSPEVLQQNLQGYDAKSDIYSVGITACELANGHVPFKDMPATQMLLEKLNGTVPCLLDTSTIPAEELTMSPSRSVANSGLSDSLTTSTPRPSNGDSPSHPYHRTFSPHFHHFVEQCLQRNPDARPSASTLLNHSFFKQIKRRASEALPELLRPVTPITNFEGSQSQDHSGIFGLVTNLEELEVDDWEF

B1: STRAD-activated LKB1 (Flag-tagged wild-type human LKB1 co-expressed with STRAD, Flag immunoprecipitate) (protein)
chain 1: MEVVDPQQLGMFTEGELMSVGMDTFIHRIDSTEVIYQPRRKRAKLIGKYLMGDLLGEGSYGKVKEVLDSETLCRRAVKILKKKKLRRIPNGEANVKKEIQLLRRLRHKNVIQLVDVLYNEEKQKMYMVMEYCVCGMQEMLDSVPEKRFPVCQAHGYFCQLIDGLEYLHSQGIVHKDIKPGNLLLTTGGTLKISDLGVAEALHPFAADDTCRTSQGSPAFQPPEIANGLDTFSGFKVDIWSAGVTLYNITTGLYPFEGDNIYKLFENIGKGSYAIPGDCGPPLSDLLKGMLEYEPAKRFSIRQIRQHSWFRKKHPPAEAPVPIPPSPDTKDRWRSMTVVPYLEDLHGADEDEDLFDIEDDIIYTQDFTVPGQVPEEEASHNGQRRGLPKAVCMNGTEAAQLSTKSRAEGRAPNPARKACSASSKIRRLSACKQQ
chain 2: T1 chain
B2: Flag-tagged human LKB1, kinase dead (K78I), immunoprecipitated from HT1080 cells (protein)
chain: B1 chain 1 with K78I
B3: Flag-tagged human LKB1, wild-type, immunoprecipitated from HT1080 cells (protein)
chain: B1 chain 1

How the values were obtained:
[1] = molecular target: MBP-AMPKa (1-312) bacterial fusion protein
[2] = molecular target: LxT peptide library (x-x-x-x-Leu-x-Thr-x-x-x peptides with a fixed lysine tail K-K-K)
[3] = molecular target: R-T peptide library (arginine fixed at the -1 position of a threonine phosphoacceptor)
[4] = molecular target: T1, STRAD (human, from pCDNA4 HisMax), …

| Protein | AMPK kinase activity towards the SAMS peptide after in vitro phosphorylation by LKB1 [1] | trans-phosphorylation of MBP-AMPKα in vitro [1] | phosphorylation of degenerate peptide libraries (32P incorporation, p81 paper) [2] | phosphorylation of degenerate peptide libraries (32P incorporation, p81 paper) [3] | AMPK kinase activity towards the SAMS peptide after in vitro kinase reaction with LKB1 [1] | in vitro phosphorylation of MBP-AMPKα (32P incorporation; phospho-Thr172 immunoblot) [1] | LKB1 autophosphorylation in vitro [4] | phosphorylation of the SAMS peptide (32P γ-ATP) (SAMS peptide) |
| --- | --- | --- | --- | --- | --- | --- | --- | --- |
| B1 | induced AMPK kinase activity an average of 27 and 50 fold, respectively | co-expression of LKB1 with STRAD led to a dramatic proportional increase in LKB1 autophosphorylation and trans-phosphorylation of MBP-AMPKα | leucine at the -2 position was strongly selected | Arginine in the -1 position was selected over random amino acids | – | – | – | – |
| B2 | – | – | – | – | Kinase-inactive LKB1 alone or coexpressed with STRAD was unable to activate AMPK | wild-type but not kinase-dead LKB1 immunoprecipitated from mammalian cells efficiently phosphorylated | – | – |
| B3 | induced AMPK kinase activity an average of 27 and 50 fold, respectively | – | – | – | – | wild-type but not kinase-dead LKB1 immunoprecipitated from mammalian cells efficiently phosphorylated a bacterially expressed maltose-binding protein (MBP) fusion product of the AMPKα catalytic subunit in vitro | co-expression of LKB1 with STRAD led to a dramatic proportional increase in LKB1 autophosphorylation | LKB1 alone was incapable of detectably phosphorylating the SAMS peptide |
